Results on four molecules are retold here after patent publication US6730828B1, “Isolated nucleic acids encoding a wheat glutathione transferase, plants transformed therewith and methods of use thereof” (Aventis Agriculture Limited, priority 1997, dated 2004).

Data set [1] in a line: GST activity toward herbicide metolachlor (HPLC-based assay). It counts as biochemical. As to the method: (§1) The purified isoenzymes were assayed for GST activity toward herbicides using the HPLC-based assays described by Edwards R. and Cole D. J. (Pesticide Biochemistry and Physiology Vol. 54, pp96-104 (1996)) and the results are presented in Table 2. […] These isoenzymes had additional activities as glutathione peroxidases able to reduce linoleic acid hydroperoxide, a major reaction product formed during membrane peroxidation in plants (Williamson and Beverly. J. Cereal Sci. 8, 1988, 155-163).
(§2) To assay the recombinant fusion proteins for GST activity, the E. coli were grown in the presence of IPTG and then pelleted by centrifugation. The bacteria were then lysed by sonication and the protein precipitated using 80% ammonium sulphate. After resuspension and desalting, GSTs were purified by affinity chromatography. The WIC 3 fusion protein was purified using sulphobromophthalein-S-glutathione affinity chromatography (Mozer et al. Biochem. 22, 1983, 1068-1072) while the other WIC fusion proteins were purified using glutathione-agarose (Mannervik and Guthenberg. Methods Enzymol. 77 1981, 231-235).The purified enzymes were then assayed for GST activities toward herbicides (Table 3) and GST activities toward non-herbicide substrates and glutathione peroxidase activities toward organic hydroperoxides (Table 4).
(§3) A polyclonal antiserum was raised in a rabbit to a mixture of TaGST1-2 and TaGST1-3. When tested against crude extracts from safener-treated wheat shoots the antiserum recognised both the 25 kDa TaGST1 subunit and the 26 kDa safener-inducible TaGST2 and TaGST3 subunits. The antiserum was then used in conjunction with the antiserum raised to TaGST1-1 to immuno screen the cDNA library prepared from fenchlorazole ethyl treated wheat shoots as described in example 1. Duplicate lifts were taken from the plated out library and the first blot screened with the antiserum raised against TaGST1-2 and TaGST1-3. The second blot was screened with the antiserum raised to TaGST1-1. Five plaques were identified from the first blot which were absent from the second blot corresponding to cDNAs encoding TaGST2 or TaGST3 like polypeptides and theses clones were purified and the respective plasmids sequenced. […] The other three clones ICC. ICP and ICV had identical DNA sequences (SEQ ID No. 17) and predicted amino acid sequence (SEQ ID No. 18). GST ICJ was sub-cloned into the pET 11a vector after using PCR to introduce a Nde 1 restriction site into the translation start site, using the primer 5′ AGGTAGTTACATATGGCCGGAGGA 3′ (SEQ ID No. 19) in the amplification. following sub-cloning, the sequence of GST ICJ was re-checked to ensure no PCR induced errors had been introduced. The recombinant GST ICJ was then expressed in E. coli and purified by S-hexylglutathione affinity chromatography. The purified GST ICJ was assayed for activities as a GST (Table 3) and as a glutathione peroxidase (Table 4). […] GST ICV was finally expressed as the respective beta-galactosidase fusion protein using the Bluescript plasmid and assayed for GST activity (Table 3 ) and glutathione peroxidase activity (Table 4) in crude bacterial lysates. The specific activity of GST ICV toward these substrates was then calculated by I) subtracting the low levels of GST and GPOX activity present due the endogenous activities in the E. coli and ii) determining the proportion of protein in the lysate present as recombinant GST ICV from SDS-PAGE analysis, by densitometry analysis of polypeptides stained with Coomassie blue.

In the next data set the test system is wheat shoots. The experiment in a line: Enhancement of GST isoenzyme expression in wheat shoots by safener fenchlorazole-ethyl. The format is in vivo, Triticum aestivum L. var. Hunter. How it is done:
Wheat seeds (Triticum aestivum L. var. Hunter) were imbibed in a 10 mg/l solution of the herbicide safener fenchlorazole-ethyl and then grown in an environmental growth room with further root-applied watering treatments of 5 mg/l fenchlorazole ethyl applied as required. At 10 days after imbibing, the shoot tissue was harvested and extracted prior to precipitation of the protein with ammonium sulphate (80% saturation). The total protein extract was then applied in the presence of 1 M ammonium sulphate to a phenyl-Sepharose column. The bound GSTs were then recovered, firstly by reducing the ammonium sulphate concentration to 0 M to yield the polar GST fraction, which represented 61% of the recovered activity toward 1-chloro-2,4-dinitrobenzene (CDNB). The remaining 39% of the GST activity was then recovered by adding ethylene glycol (50% v/v) to the running buffer to yield the hydrophobic GST fraction. […] The component polypeptides in the active fractions were then analysed by silver staining after resolution by sodium dodecyl sulphate polyacrylamide gel electrophoresis (SDS-PAGE). It was concluded that in fenchlorazole-ethyl-treated wheat the polar GSTs were composed of 25 kDa and 26 kDa polypeptides, while the hydrophobic fraction contained 25 kDa, 26 kDa and 24 kDa polypeptides. Further analysis by reversed-phase HPLC confirmed the subunit compositions (FIG. 2). Based on the combined analyses by Q-sepharose, HPLC and SDS-PAGE these GST polypeptides were named as described in Table 1, which also contains details of how these subunits associate together to form the active dimers found in plants and the relative abundance of these subunits in extracts from unsafened and fenchlorazole-ethyl treated ([…]) plants.

Data set [2] in a line: GST activity toward herbicide fenoxaprop-ethyl (HPLC-based assay). The format is biochemical. As to the method:
as §1, §2, §3

Data set [3] can be described thus: GST activity toward herbicide fluorodifen (HPLC-based assay). The format is biochemical. How it is done: as §1, §2, §3
The nature of another data set: GST activity toward CDNB. It counts as biochemical. How it is done:
as §1
To confirm that TaGST1 encoded a GST, it was expressed as a fusion protein with beta-galactosidase using the pBluescript plasmid in E. coli strain SOLR. TaGST1 clones were inoculated into LB liquid medium and were grown overnight at 37/C on all orbital shaker in the presence of IPTG. Bacteria were then pelleted by centrifugation, lysed by sonication and assayed for GST activity toward CDNB and analysed by SDS-PAGE and Western blotting using the anti-TaGSTI-I serum. With all six TaGST1 clones, GST activity toward CDNB could be determined in the crude extracts in the range 30-50 nkat/mg crude lysate.
as §2
as §3, with “The specific activity of GST ICV toward these substrates was then calculated by I) subtracting the low levels of GST and GPOX activity present due the endogenous activities in the E. coli and ii) determining the proportion of protein in the lysate present as recombinant GST ICV from SDS-PAGE analysis, by densitometry analysis of polypeptides stained with Coomassie blue.” left out

Data set [4] is described as follows: Glutathione peroxidase activity toward cumene hydroperoxide. The format is biochemical. As to the method:
as §2, §3

Where [5] appears, read: isoenzymes purified from fenchlorazole-ethyl-treated wheat shoots.
[6] abbreviates: beta-galactosidase fusion in crude bacterial lysates, E. coli background subtracted, corrected for proportion of recombinant protein.
[7] abbreviates: recombinant wheat GST expressed in E. coli, affinity purified, ± standard error.
[8] abbreviates: recombinant wheat GST expressed in E. coli, affinity purified.

B1: TaGST1-1: wheat GST isoenzyme purified from safener-treated shoots, homodimer of 25 kDa TaGST1 subunits (SEQ ID No. 2/SEQ ID No. 2) (protein)
chain 1: MAGEKGLVLLDFWVSPFGQRVRIALAEKGLPYEYAEEDLMAGKSDRLLRANPVHKKIPVLLHDGRAVNESLIILQYLEEAFPDAPALLPSDPYARAQARFWADYVDKKVYDCGSRLWKLKGEPQAQARAEMLDILKTLDGALGDKPFFGGDKFGFVDAAFAPFTAWFHSYERYGEFSLPEVAPKIAAWAKRCGERESVAKSLYSPDKVYDFIGLLKKKYGIE
chain 2: MAGEKGLVLLDFWVSPFGQRVRIALAEKGLPYEYAEEDLMAGKSDRLLRANPVHKKIPVLLHDGRAVNESLIILQYLEEAFPDAPALLPSDPYARAQARFWADYVDKKVYDCGSRLWKLKGEPQAQARAEMLDILKTLDGALGDKPFFGGDKFGFVDAAFAPFTAWFHSYERYGEFSLPEVAPKIAAWAKRCGERESVAKSLYSPDKVYDFIGLLKKKYGIE
modifications: homodimer; Triticum aestivum L.
As to B1, the “GST activity toward metolachlor” value in data set [1] (setting [5]) is 0.11 nkat.mg^−1. For the same molecule, the “% enhancement by safener” value with wheat shoots (fenchlorazole-ethyl treated (safened) versus unsafened wheat shoots) is reported as 30-50%. Further, in the data set with wheat shoots (leaves of wheat seedlings), the “Increase in expression following exposure to fenchlorazole-ethyl” value is listed as “approximately 50%”. For the same molecule, the “GST activity toward fenoxaprop-ethyl” value in data set [2] (setting [5]) worked out at 0 nkat.mg^−1. In addition, the “GST activity toward fluorodifen” value in data set [3] (setting [5]) is listed as 0.97 nkat.mg^−1. Also, the “GST activity toward CDNB” value in the data set “GST activity toward CDNB” (setting [5]) is reported as 1,528 nkat.mg^−1.

B2: ICC/V/P: recombinant type III wheat GST; clones ICC, ICP and ICV with identical sequence, SEQ ID No. 17, amino acid SEQ ID No. 18 (protein)
chain: MAGGEELKLLGWWAPGVSPYVLRAQMALAVKGLSYDYLPEDRWSTSDLLIASNPVYKKVPVLIHNGRPVCESLLILEYLDDAVGLAGNGKPILPADPYSRAVARFWAAYVNDKLFPSCTGILKTTKQEERAGKMEETLSGLRHLEAVMAECSEGEAEAPFFGGDAIGFLDIALGCYLPWFEAAGRLAGLGPIIDPARTPKLAAWAERFSVAEPIKALLPGVDKLEEYITTALYPKWNIAVTGN
modifications: Triticum aestivum L.
On to B2, for which the “GST activity toward metolachlor” value in data set [1] (setting [6]) came out at 0.000 ± 0.000 nkat.mg^−1. Also, in data set [4] (setting [6]), the “Glutathione peroxidase activity toward cumene hydroperoxide” value is on record as 0.84 ± 0.04 absorbance change at 340 nm.mg^−1. Moreover, the “GST activity toward fenoxaprop-ethyl” value in data set [2] (setting [6]) stood at 0.074 ± 0.008 nkat.mg^−1. The “GST activity toward fluorodifen” value in data set [3] (setting [6]) came out at 0.000 ± 0.000 nkat.mg^−1. Moreover, the “GST activity toward CDNB” value in “GST activity toward CDNB” (setting [6]) was found to be 30 nkat.mg^−1.

B3: TA 27: recombinant wheat GST from cloquintocet-mexyl-induced cDNA, SEQ ID No. 13, amino acid SEQ ID No. 14, expressed from pET 11a (protein)
chain: MEPMKVYGWAVSPWMARVLVSLEEAGADYELVPMSRNGGDHRRPEHLARNPFGEIPVLEYGGLTLYQSRAIARHILRKHKPGLLGAGSLEESAMVDVWVDVDAHHLEPVLKPIVWNCIINPFVGRDVDQGLVDESVEKLKKLLEVYEARLSSNKYLAGDFVSFADLTHFSFMRYFMATEHAVVLDAYPHVKAWWKALLARPSVKKVIAGMPPDFGFGSGRIP
modifications: Triticum aestivum L.
For B3, the “GST activity toward metolachlor” value in data set [1] (setting [7]) is listed as 0.063 ± 0.006 nkat.mg^−1. In data set [4] (recombinant wheat GST, affinity purified, ± standard error (n = 3)), the “Glutathione peroxidase activity toward cumene hydroperoxide” value is listed as 3.6 ± 0.4 absorbance change at 340 nm.mg^−1. Moreover, the “GST activity toward fenoxaprop-ethyl” value in data set [2] (setting [7]) came to 0.036 ± 0.004 nkat.mg^−1. Moreover, the “GST activity toward fluorodifen” value in data set [3] (setting [7]) came to 0.034 ± 0.003 nkat.mg^−1. Further, the “GST activity toward CDNB” value in the data set “GST activity toward CDNB” (setting [8]) was determined as 237 nkat.mg^−1.

B4: ICR: recombinant safener-inducible type III wheat GST clone, SEQ ID No. 15, amino acid SEQ ID No. 16 (protein)
chain: MAGDGELKLLGVWTSPFVIRVRVVLNLKSLPYEYVEESLGSKSALLLGSNPVHQSVPVLLHGGRPVNESQVIVQYIDEVWAGAGPSVLPADPYERATARFWAAYVDDKVGSAWTGMLFSCKTEEERAEAVSRAVAALETLEGAFAECSKGKAFFGGDAIGFVDVVLGGYLGWFGAIDKIIGRRLIDPARTPLLARWEERFRAADAAKGVVPDDADKMLEFLPTVLAWIAGKAK
modifications: Triticum aestivum L.
Take B4: the “GST activity toward metolachlor” value in data set [1] (setting [7]) was 0.000 ± 0.000 nkat.mg^−1. For the same molecule, the “GST activity toward fenoxaprop-ethyl” value in data set [2] (setting [7]) is reported as 0.028 ± 0.001 nkat.mg^−1. Further, in data set [3] (setting [7]), the “GST activity toward fluorodifen” value stood at 0.037 ± 0.002 nkat.mg^−1. For the same molecule, the “GST activity toward CDNB” value in “GST activity toward CDNB” (setting [8]) is on record as 8139 nkat.mg^−1.
